These are literature values, as cited in paper PMC4452855.

pKd: −log10 of the molar value.

For this data set, the target named is IFN-λ1 (Homo sapiens) (UniProt Q8IU54).
Chain of UniProt Q8IU54 (Q8IU54 20-200): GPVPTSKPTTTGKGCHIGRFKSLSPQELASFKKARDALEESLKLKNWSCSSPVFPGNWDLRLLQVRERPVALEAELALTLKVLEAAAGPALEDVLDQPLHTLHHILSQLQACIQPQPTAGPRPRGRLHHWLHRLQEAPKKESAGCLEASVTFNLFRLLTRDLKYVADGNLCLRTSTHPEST

Turning to “sIFN-λR1 short splice variant (from UniProt Q8IU57)”, the pKd is 7.14.

A word on the pKd: it is the Kd on a negative log10 scale, so that one unit is a factor of ten.
